Measurements reported in US20190135928A1 (Bristol-Myers Squibb, published 2019).

Tests used:
Assay in all cases: cell-based or functional assay
human TL1A (in-house) [1] = biological target: T1, human TL1A (in-house) (human, UniProt O95150 57-251, limits assumed)
T1 sequence: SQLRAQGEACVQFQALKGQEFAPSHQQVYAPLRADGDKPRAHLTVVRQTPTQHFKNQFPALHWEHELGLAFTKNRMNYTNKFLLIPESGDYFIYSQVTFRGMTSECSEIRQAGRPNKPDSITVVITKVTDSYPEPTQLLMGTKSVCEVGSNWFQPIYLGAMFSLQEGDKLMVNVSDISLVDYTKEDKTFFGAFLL

human TL1A (in-house) [2] = biological target: T1, human TL1A (in-house); remark: listed apart in the source
human TL1A (in-house) [3] = biological target: T1, human TL1A (in-house); remark: listed apart in the source
human TL1A (in-house) [4] = biological target: T1, human TL1A (in-house); remark: listed apart in the source
human TL1A (in-house) [5] = biological target: T1, human TL1A (in-house); remark: listed apart in the source

EC50, TL1A + IL-12 + IL-18 driven IFNg (Hu Tcells) (5.9 mg/ml), Donor A, ELN ref 99932-004774 (human TL1A (in-house) [1]): 0.171 nM | EC50, TL1A + IL-12 + IL-18 driven IFNg (Hu Tcells) (5.9 mg/ml), Donor A, ELN ref 99932-004955 (human TL1A (in-house) [1]): 0.273 nM | EC50, TL1A + IL-12 + IL-18 driven IFNg (Hu Tcells) (5.9 mg/ml), Donor B, ELN ref 99932-004774 (human TL1A (in-house) [1]): 0.243 nM | EC50, TL1A + IL-12 + IL-18 driven IFNg (Hu Tcells) (5.9 mg/ml), Donor B, ELN ref 99932-004955 (human TL1A (in-house) [1]): 0.182 nM | EC50, TL1A + IL-12 + IL-18 driven IFNg (Hu PBMCs) (2.45 mg/ml), Donor A, ELN ref 97305-032 (human TL1A (in-house) [2]): 0.131 nM | EC50, TL1A + IL-12 + IL-18 driven IFNg (Hu PBMCs) (2.45 mg/ml), Donor A, ELN ref 97305-037 (human TL1A (in-house) [2]): 0.138 nM | EC50, TL1A + IL-12 + IL-18 driven IFNg (Hu PBMCs) (2.45 mg/ml), Donor A, ELN ref 97305-040 (human TL1A (in-house) [2]): 0.167 nM | EC50, TL1A + IL-12 + IL-18 driven IFNg (Hu PBMCs) (2.45 mg/ml), Donor A, ELN ref 97305-041 (human TL1A (in-house) [2]): 0.209 nM | EC50, TL1A + IL-12 + IL-18 driven IFNg (Hu PBMCs) (2.45 mg/ml), Donor A, ELN ref 97305-044 (human TL1A (in-house) [2]): 0.272 nM | EC50, TL1A + IL-12 + IL-18 driven IFNg (Hu PBMCs) (2.45 mg/ml), Donor A, ELN ref 97305-047 (human TL1A (in-house) [2]): 0.095 nM | EC50, TL1A + IL-12 + IL-18 driven IFNg (Hu PBMCs) (2.45 mg/ml), Donor A, ELN ref 97305-050 (human TL1A (in-house) [2]): 0.209 nM | EC50, TL1A + IL-12 + IL-18 driven IFNg (Hu PBMCs) (2.45 mg/ml), Donor A, ELN ref 97305-061 (human TL1A (in-house) [2]): 0.26 nM | EC50, TL1A + IL-12 + IL-18 driven IFNg (Hu PBMCs) (2.45 mg/ml), Donor A, ELN ref 99932-005481 (human TL1A (in-house) [2]): 0.301 nM | EC50, TL1A + IL-12 + IL-18 driven IFNg (Hu PBMCs) (2.45 mg/ml), Donor B, ELN ref 97305-032 (human TL1A (in-house) [2]): 0.197 nM | EC50, TL1A + IL-12 + IL-18 driven IFNg (Hu PBMCs) (2.45 mg/ml), Donor B, ELN ref 97305-037 (human TL1A (in-house) [2]): 0.289 nM | EC50, TL1A + IL-12 + IL-18 driven IFNg (Hu PBMCs) (2.45 mg/ml), Donor B, ELN ref 97305-040 (human TL1A (in-house) [2]): 0.146 nM | EC50, TL1A + IL-12 + IL-18 driven IFNg (Hu PBMCs) (2.45 mg/ml), Donor B, ELN ref 97305-041 (human TL1A (in-house) [2]): 0.283 nM | EC50, TL1A + IL-12 + IL-18 driven IFNg (Hu PBMCs) (2.45 mg/ml), Donor B, ELN ref 97305-044 (human TL1A (in-house) [2]): 0.211 nM | EC50, TL1A + IL-12 + IL-18 driven IFNg (Hu PBMCs) (2.45 mg/ml), Donor B, ELN ref 97305-047 (human TL1A (in-house) [2]): 0.185 nM | EC50, TL1A + IL-12 + IL-18 driven IFNg (Hu PBMCs) (2.45 mg/ml), Donor B, ELN ref 97305-050 (human TL1A (in-house) [2]): 0.163 nM | EC50, TL1A + IL-12 + IL-18 driven IFNg (Hu PBMCs) (2.45 mg/ml), Donor B, ELN ref 97305-061 (human TL1A (in-house) [2]): 0.152 nM | EC50, TL1A + IL-12 + IL-18 driven IFNg (Hu PBMCs) (2.45 mg/ml), Donor B, ELN ref 99932-005481 (human TL1A (in-house) [2]): 0.196 nM | EC50, TL1A + IL-12 + IL-18 driven IFNg (Hu NKcells)(2.45 mg/ml), Donor A, ELN ref 97305-070 (human TL1A (in-house) [3]): 0.16 nM | EC50, TL1A + IL-12 + IL-18 driven IFNg (Hu NKcells)(2.45 mg/ml), Donor A, ELN ref 97305-075 (human TL1A (in-house) [3]): 0.147 nM | EC50, TL1A + IL-12 + IL-18 driven IFNg (Hu NKcells)(2.45 mg/ml), Donor B, ELN ref 97305-070 (human TL1A (in-house) [3]): 0.253 nM | EC50, TL1A + IL-12 + IL-18 driven IFNg (Hu NKcells)(2.45 mg/ml), Donor B, ELN ref 97305-075 (human TL1A (in-house) [3]): 0.162 nM | EC50, TL1A-driven phospho-NFkB in Hu Whole Blood(2.45 mg/ml), CD3+CD4-CD8- T-cells, Donor A, no ELN ref printed in this row (human TL1A (in-house) [4]): 0.83 nM | EC50, TL1A-driven phospho-NFkB in Hu Whole Blood(2.45 mg/ml), CD4+ T-cells, Donor A, ELN ref A010F-003 (human TL1A (in-house) [4]): 2.64 nM | EC50, TL1A-driven phospho-NFkB in Hu Whole Blood(2.45 mg/ml), CD4+ T-cells, Donor A, ELN ref A010F-007 (human TL1A (in-house) [4]): 0.77 nM | EC50, TL1A-driven phospho-NFkB in Hu Whole Blood(2.45 mg/ml), CD4+ T-cells, Donor B, ELN ref A010F-003 (human TL1A (in-house) [4]): 2.94 nM | EC50, TL1A-driven phospho-NFkB in Hu Whole Blood(2.45 mg/ml), CD4+ T-cells, Donor B, ELN ref A010F-007 (human TL1A (in-house) [4]): 3.24 nM | EC50, TL1A-driven phospho-NFkB in Hu Whole Blood(2.45 mg/ml), CD8+ T-cells, Donor A, no ELN ref printed in this row (human TL1A (in-house) [4]): 0.85 nM | EC50, TL1A + IL-12 + IL-18 driven IFNg (Hu Tcells) (2.45 mg/ml), Donor A, ELN ref 97305-062 (human TL1A (in-house) [5]): 0.18 nM | EC50, TL1A + IL-12 + IL-18 driven IFNg (Hu Tcells) (2.45 mg/ml), Donor A, ELN ref 97305-064 (human TL1A (in-house) [5]): 0.235 nM | EC50, TL1A + IL-12 + IL-18 driven IFNg (Hu Tcells) (2.45 mg/ml), Donor A, ELN ref 97305-066 (human TL1A (in-house) [5]): 0.331 nM | EC50, TL1A + IL-12 + IL-18 driven IFNg (Hu Tcells) (2.45 mg/ml), Donor A, ELN ref 97305-077 (human TL1A (in-house) [5]): 0.241 nM | EC50, TL1A + IL-12 + IL-18 driven IFNg (Hu Tcells) (2.45 mg/ml), Donor A, ELN ref 97305-082 (human TL1A (in-house) [5]): 0.034 nM | EC50, TL1A + IL-12 + IL-18 driven IFNg (Hu Tcells) (2.45 mg/ml), Donor A, ELN ref 99932-003797 (human TL1A (in-house) [5]): 0.355 nM | EC50, TL1A + IL-12 + IL-18 driven IFNg (Hu Tcells) (2.45 mg/ml), Donor A, ELN ref 99932-004083 (human TL1A (in-house) [5]): 0.393 nM | EC50, TL1A + IL-12 + IL-18 driven IFNg (Hu Tcells) (2.45 mg/ml), Donor A, ELN ref 99932-004084 (human TL1A (in-house) [5]): 0.367 nM | EC50, TL1A + IL-12 + IL-18 driven IFNg (Hu Tcells) (2.45 mg/ml), Donor A, ELN ref 99932-004439 (human TL1A (in-house) [5]): 0.185 nM | EC50, TL1A + IL-12 + IL-18 driven IFNg (Hu Tcells) (2.45 mg/ml), Donor A, ELN ref 99932-004774 (human TL1A (in-house) [5]): 0.22 nM
B1: TL1A antibody 10A4.F7.2E8 huIgG4 (antibody, V domains shown)
VH: QLQLQESGPGLVKPSETLSLTCTVSGGSISSRSYYWGWIRQPPGKGLEWIGSIYYNGRTYYNPSLKSRVTISVDTSKNQFSLKLSSVTAADTAVYYCAREDYGDYGAFDIWGQGTMVTVSS
VL: AIQLTQSPSSLSASVGDRVTITCRASQGISSALAWYQQKPGKAPKLLIYDASSLESGVPSRFSGSGSGTDFTLTISSLQPEDFATYYCQQFNSYPLTFGGGTKVEIKR
